According to patent US8058396B2, “Cystatin C as an antagonist of TGF-β and methods related thereto” (National Jewish Health, priority 2003, dated 2011):
Where a SMILES comes first, the peptide text is derived from it.

Tests used:
[1] = system: HT1080 fibrosarcoma cells; assay: HT1080 cell invasion through Matrigel matrices; type: cell-based, human; details: treatment of HT1080 cells with inhibitor
Description: (§1) The effect CystC and D14CystC on the invasion of HT1080 and 3T3-L1 cells was determined as described previously (42). Briefly, upper chambers were coated with 100 μl of diluted Matrigel (1:50 in serum-free media), which was allowed to evaporate to dryness overnight at room temperature. The following morning the Matrigel mixtures were rehydrated and subsequently cultured with control-, CystC-, or D14CystC-expressing HT1080 or 3T3-L1 cells at a density of 100,000 cells/chamber. Cellular invasion was stimulated by addition of 2% serum to the lower chambers. Forty-eight hr later, the cells were washed twice in ice-cold PBS and immediately fixed for 15 min with 95% ethanol. Cells remaining in the upper chambers were removed with a cotton swab, whereas those remaining in the lower chamber were stained with crystal violet. Quantifying invading cells was determined through two independent measures, which yielded identical results: (i) manual counting under a light microscope, and (ii) crystal violet dye extraction by incubation of the membranes in 10% acetic acid, followed by spectrophotometry at 590 nm.
Cathepsin B is a lysosomal cysteine proteinase that functions in intracellular protein catabolism, as well as in bone resorption, hormone activation, and antigen processing (5). During tumorigenesis, cancer cells express a cathepsin B splice variant whose protein product is secreted into the extracellular milieu (5) and localized to the leading edge of invasive tumors (19), thereby promoting cancer cell invasion and metastasis. However, recent evidence has questioned the role of intracellular versus extracellular cathepsin B in promoting cancer cell invasion (20). To distinguish between these two possibilities, human HT1080 fibrosarcoma cells that stably express the murine ecotropic receptor (21) were infected with control (i.e., GFP), CystC, or Δ14CystC retrovirus. Afterward, cells that expressed GFP were isolated by flow cytometry to establish stable polyclonal populations of control-, CystC-, and Δ14CystC-expressing HT1080 cells (data not shown). The inventor chose to study HT1080 cells because they are highly invasive, and because they express large quantities of secreted cathepsin B and comparably little CystC (22). Thus, if extracellular cathepsin B mediates HT1080 cell invasion, it was hypothesized that overexpression of secreted CystC would attenuate their invasion through synthetic basement membranes.
Briefly, GFP-, CystC-, or Δ14CystC-expressing HT0180 cells were allowed to invade through Matrigel-coated membranes for 48 hr. Data shown in FIG. 1A are the mean (±SE) of three (Δ14CystC) and nine (GFP and CystC) independent experiments presented as the percent invasion relative to GFP-expressing HT1080 cells (***, p<0.05; Student's T-Test).

[2] = system: TGF-β receptors (TβR-I, TβR-II, TβR-III); assay: Iodinated TGF-β1 radioligand binding and cross-linking assay on Mv1Lu cells; parameters: species or system mink; details: [125I]TGF-β1 200 pM, recombinant protein 0-10 μg/ml, 3 hr at 4° C.
Description: Mink lung Mv1Lu epithelial cells were plated onto 6-well plates and grown until 90% confluency. The radioligand binding and cross-linking of iodinated TGF-β1 (200 pM) to Mv1Lu cells in the absence or presence of increasing concentration of recombinant GST-Jun(1-79) or -CystC was performed as described previously (44). Afterward, cytokine:receptor complexes contained in detergent-solubilized whole cell extracts were isolated by immunoprecipitation with anti-TβR-II antibodies as described previously (44). TGF-β1 bound to cell surface TβR-I, TβR-II, and TβR-III was visualized by exposure of the dried gels to a phosphor screen, which were developed 1-3 d later on a Molecular Dynamic Typhoon Scanner. Total bound TGF-β1 was defined as the sum of signal intensities for TGF-β1 cross-linked to TβR-I, TβR-II, and TβR-III in each condition.
Mink lung Mv1Lu epithelial cells were incubated for 3 hr at 4° C. with [125I]TGF-β1 (200 pM) in the absence or presence of increasing concentrations (0-10 μg/ml; 0, 0.5, 1, 5, 10) of recombinant Jun(1-79) or CystC. Cytokine:receptor complexes were cross-linked by addition of disuccinimidyl suberate, and subsequently isolated from detergent-solubilized whole cell extracts by immunoprecipitation with anti-TβR-II antibodies. […]

[3] = system: 3T3-L1 fibroblasts; assay: 3T3-L1 cell invasion through Matrigel matrices; type: cell-based, murine; details: recombinant protein 10 mg/ml; TGF-β1 5 ng/ml; 48 hr
Description: as §1
In some experiments, the effects of recombinant CystC and D14CystC on 3T3-L1 cell invasion was examined. To do so, 3T3-L1 cells (100,000 cells/chamber) were allowed to invade through Matrigel […], together with or without 5 ng/ml of TGF-β1. All subsequent procedures were performed as described above.
GFP-, CystC-, or Δ14CystC-expressing 3T3-L1 cells were allowed to invade through Matrigel-coated filters in the absence or presence of TGF-β1 (5 ng/ml) for 48 hr, and the results are shown in FIG. 2A. […] Data are the mean (±SE) of four independent experiments presented as the percent invasion relative to GFP-expressing 3T3-L1 cells.
Moreover, the inhibitory effects of CystC on 3T3-L1 cell invasion could be recapitulated by addition of recombinant CystC fusion proteins. Control or TGF-β1-stimulated (5 ng/ml) 3T3-L1 cells were allowed to invade through Matrigel-coated filters for 48 hr in the absence or presence of recombinant (10 mg/ml) GST, GST-CystC, or GST-D14CystC as indicated in FIG. 2B. […] Data are the mean (±SE) of three independent experiments presented as the percent invasion relative to untreated 3T3-L1 cells. […] Collectively, these findings indicate that 3T3-L1 cell invasion proceeds through cathepsin B-dependent and TGF-β-dependent pathways.

[4] = system: TGF-β signaling; assay: p3TP-luciferase reporter gene assay in 3T3-L1 cells; type: cell-based, murine; details: recombinant protein 10 mg/ml; TGF-β1 5 ng/ml; 3T3-L1 cells; p<0.05
Description: Analysis of luciferase activity driven by the synthetic p3TP reporter ((26); generously provided by Dr. Joan Massague, Sloan Kettering) was performed as described previously (42). Briefly, control, CystC-, or Δ14CystC-expressing 3T3-L1 or HT1080 cells were cultured onto 24-well plates at a density of 45,000 cells/well and allowed to adhere overnight. The cells were transiently transfected the following morning by overnight exposure to LT1 liposomes (Mirus) containing 300 ng/well p3TP-luciferase and 100 ng/well of pCMV-β-gal. Afterward, the cells were washed twice with PBS and stimulated overnight in serum-free media with increasing concentrations of TGF-β1 as indicated. The following morning, luciferase and β-gal activities contained in detergent-solubilized cell extracts were determined.
In some experiments, the effects of recombinant CystC and D14CystC on p3TP-luciferase activity 3T3-L1 cells was determined. […] All subsequent procedures were performed as described above.
The present inventor's findings that TGF-β signaling was inhibited by CystC (FIGS. 1 and 2) independent of its actions on cathepsin B lead them to hypothesize CystC as a general antagonist of TGF-β signaling. To test this hypothesis, changes in p3TP-driven luciferase activity were monitored in control, CystC-, Δ14CystC-expressing cells before and after their stimulation with TGF-β. Briefly, GFP-, CystC-, or Δ14CystC-expressing 3T3-L1 cells were transiently transfected with p3TP-luciferase and pCMV-β-gal, and subsequently stimulated with increasing concentrations of TGF-β1 (0-5 ng/ml) as indicated in FIG. 3A. Afterward, luciferase and β-gal activities contained in detergent-solubilized cell extracts were measured. […] Data are the mean (±SE) luciferase activities of four independent experiments normalized to untreated GFP-expressing cells.
The transfectants were then stimulated with TGF-β1 (5 ng/ml) in the absence or presence of recombinant (10 mg/ml) GST, GST-CystC, or GST-D14CystC as indicated in FIG. 3B. […]

[5] = system: NMuMG mammary epithelial cells; assay: TGF-β-stimulated actin cytoskeletal reorganization (EMT) in NMuMG cells, rhodamine-phalloidin immunofluorescence; type: cell-based, murine; details: recombinant protein treatment 10 μg/ml; TGF-β1 5 ng/ml; NMuMG cells
Description: (§2) The ability of TGF-β to alter actin cytoskeletal architecture and E-cadherin expression was monitored essentially as described (Piek et al., 1999). Briefly, control-, CystC-, or Δ14CystC-expressing NMuMG cells were allowed to adhere overnight to glass coverslips in 24-well plates (50,000 cells/well). The cells were stimulated the following day with TGF-β1 (5 ng/ml) for 0-36 hours at 37° C. In some experiments, control NMuMG cells were stimulated with TGF-β1 in the absence or presence of 10 μg/ml of recombinant GST, GST-CystC, or GST-Δ14CystC. Upon completion of agonist stimulation, the cells were washed in ice-cold PBS and immediately fixed in 3.7% formaldehyde. After extensive washing in PBS, the cells were blocked in PBS supplemented with 1.5% FBS, followed by incubation with rhodamine-phalloidin (0.25 μM). […]
(§3) To test this hypothesis, the inventor first examined whether CystC and a CystC mutant impaired in its ability to inhibit cathepsin protease activity (i.e., Δ14CystC) could antagonize TGF-β stimulation of EMT in MECs. […] TGF-β stimulation of EMT is studied routinely in murine NMuMG MECs, which readily undergo EMT when treated with TGF-β (Piek et al., 1999; Miettinen et al., 1994; Gotzmann et al., 2004). […] E-cadherin expression was monitored by indirect immunofluorescence with anti-E-cadherin antibodies.
In another experiment, NMuMG cells were infected with ecotropic retrovirus encoding either GFP (i.e., control), CystC, or Δ14CystC, and subsequently were isolated by FACS-sorting for GFP expression to yield stable polyclonal populations of control, CystC, and Δ14CystC-expressing cells. The expression and secretion of recombinant CystC proteins by infected NMuMG and NRK cells was monitored by immunoblotting conditioned-media with anti-CystC antibodies. […] Next, the control, CystC-, and Δ14CystC-expressing NMuMG cells were incubated in the absence or presence of TGF-β1 (5 ng/ml) for 36 hours, whereupon E-cadherin expression was monitored by immunoblotting with anti-E-Cadherin antibodies. […]

[6] = system: NMuMG mammary epithelial cells; assay: TGF-β-mediated downregulation of E-cadherin in NMuMG cells; type: cell-based, murine; details: recombinant protein treatment 10 μg/ml; TGF-β1 5 ng/ml, 36 hours; NMuMG cells
Description: as §2
The ability of TGF-β to alter E-cadherin expression also was monitored by immunoprecipitating E-cadherin from Buffer H/1% Triton X-100-solubilized (Schiemann et al., 2003) NMuMG whole cell extracts, followed by immunoblotting with anti-E-cadherin antibodies (1:1000 dilution).
as §3
In another experiment, NMuMG cells were infected with ecotropic retrovirus encoding either GFP (i.e., control), CystC, or Δ14CystC, and subsequently were isolated by FACS-sorting for GFP expression to yield stable polyclonal populations of control, CystC, and Δ14CystC-expressing cells. The expression and secretion of recombinant CystC proteins by infected NMuMG and NRK cells was monitored by immunoblotting conditioned-media with anti-CystC antibodies. […]

Q: With `CCCNC(=O)[C@H]1O[C@@H]1C(=O)N[C@H](C(=O)N1CCC[C@H]1C(=O)OC)[C@@H](C)CC` [CA-074ME, reference compound] as the molecule, how does the HT1080 cell invasiveness ([1]; n=3) read?
A: Its HT1080 cell invasiveness is 101.0±5.6 % of control.

Q: Which “reduction of HT1080 cell invasion through Matrigel matrices” value ([1]; n=3, p<0.05) does the source give for `CC(=O)N[C@@H](CC(C)C)C(=O)N[C@H](C(=O)N[C@H](C=O)CCCCN)C(C)C` [cathepsin B inhibitor II, reference compound] (Ac-Leu-Val-Lys-aldehyde) here?
A: Its value is 47.1±8.5%.

B1: recombinant Jun(1-79): recombinant GST-Jun(1-79) fusion protein, control in the TGF-β1 binding assay (protein)
chain: MTAKMETTFYDDALNASFLPSESGPYGYSNPKILKQSMTLNLADPVGSLKPHLRAKNSDLLTSPDVGLLKLASPELERL
modifications: left off: a dimerising Fc or GST
Q: B1 was tested. Which “binding of iodinated TGF-β1 to its cell surface receptors” value [2] did it give?
A: The value was “no effect”.

B2: recombinant Δ14CystC: GST-CystC fusion protein with residues 80-93 deleted by site-directed mutagenesis, purified from E. coli (protein)
chain: MAGPLRAPLLLLAILAVALAVSPAAGSSPGKPPRLVGGPMDASVEEEGVRRALDFAVGEYNKASNDMYHSRALQVVRARLGRTTCTKTQPNLDNCPFHDQPHLKRKAFCSFQIYAVPWQGTMTLSKSTCQDA
modifications: left off: small tags and cut ends
notes: GST-CystC fusion protein with residues 80-93 deleted by site-directed mutagenesis, purified from E. coli
Q: With B2 as the molecule, how does the “3T3-L1 cell invasion stimulated by serum:TGF-β” value [3] read?
A: The value was “selectively blocked”.

Q: What about the “luciferase activity stimulated by TGF-β (p3TP)” value [4] of the same molecule?
A: Its value is “significantly inhibited”.

Q: And the “actin cytoskeletal reorganization stimulated by TGF-β” value [5]?
A: Its value is “prevented”.

Q: And the “TGF-β-mediated downregulation of E-cadherin” value [6]?
A: The value was “antagonized”.
